In the experiment the target is T1, GST-Dvl2PDZ fusion protein (human, UniProt O14641 248-364).
T1 construct: range 248-364; Made with the pGEX E. coli expression system; also called GST-PDZ fusion protein; not shown: glutathione S-transferase (GST) encoded by plasmid pGEX
T1 sequence (looked up): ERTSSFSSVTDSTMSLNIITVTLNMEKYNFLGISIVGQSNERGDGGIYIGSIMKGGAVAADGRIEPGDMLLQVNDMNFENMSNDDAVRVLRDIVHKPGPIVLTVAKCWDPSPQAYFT
The experiment in a line: phage display selection on GST-Dvl2PDZ. The method, then: The libraries were cycled through rounds of binding selection with a GST-Dvl2PDZ fusion protein coated on 96-well Maxisorp immunoplates as the capture target. Phage were propagated in E. coli XL1-blue with M13-KO7 helper phage and 10 μM IPTG. After four rounds of binding selection, individual phage clones were analyzed in a high-throughput phage ELISA, and positive clones were subjected to DNA sequence analysis.
We used decapeptide libraries fused to the C-terminus or N-terminus of the phage coat protein. The library contained NNK degenerate codons that encoded all 20 natural amino acids. The possible occurrence of amber stop codons in the degenerate codon also provided for the display of shorter peptides for the C-terminal library. Each library was cycled through four rounds of binding selection with immobilized GST-Dvl2PDZ fusion protein as the capture target.

For the molecule TRFTNYGWLDGGG [SEQ ID NO 75], the binding result is on record as “binds”.

In the case of SWYFKFYGWL [SEQ ID NO 38], the binding result was “binds”.

With DSLKYYGWIGGG [SEQ ID NO 68], the binding result is “binds”.

For the molecule TVRWVFFGFF [SEQ ID NO 33], the binding result is given as “binds”.

For the molecule SEWKNYGYIGGG [SEQ ID NO 48], the binding result is “binds”.

As to RPFCTFLGWF [SEQ ID NO 37], the binding result is recorded as “binds”.

For the molecule GTQWKDYGWLGGG [SEQ ID NO 53], the binding result is reported as “binds”.

As for TVVWHDYGWIGGG [SEQ ID NO 44], the binding result is listed as “binds”.

As for SEWKNYGYIGGG [SEQ ID NO 62], the binding result is reported as “binds”.

As to TEYGWMDYHP [SEQ ID NO 77], the binding result is “binds”.

For the molecule EKIVKDYGWIGGG [SEQ ID NO 51], the binding result is given as “binds”.

For ELRWHDYGWIGGG [SEQ ID NO 40], the binding result is given as “binds”.

As for RTRFTCFGWF [SEQ ID NO 34], the binding result was “binds”.

Take DIVLTNYGWIGGG [SEQ ID NO 43]: the binding result is recorded as “binds”.

QAVYKNYGWIGGG [SEQ ID NO 41]: the binding result was “binds”.

Turning to ASLKYYGWLDGGG [SEQ ID NO 74], the binding result was “binds”.

Regarding DMDFTGFGWLGGG [SEQ ID NO 55], the binding result is recorded as “binds”.

On to ELRWHDYGWIGGG [SEQ ID NO 57], for which the binding result is “binds”.

Take ETSWKQYGWIGGG [SEQ ID NO 66]: the binding result is “binds”.

On to LWRVTDYGWVGGG [SEQ ID NO 64], for which the binding result was “binds”.

Regarding LILVNYGWIDGGG [SEQ ID NO 78], the binding result was “binds”.

In the case of MTKWIWYGWL [SEQ ID NO 35], the binding result is “binds”.

Turning to PYTWINYGWVGGG [SEQ ID NO 67], the binding result is on record as “binds”.

As to WTIRDYGWLDGGG [SEQ ID NO 79], the binding result is listed as “binds”.

For LWRVTDYGWVGGG [SEQ ID NO 58], the binding result is “binds”.

As to QYRFIDYGWIGGG [SEQ ID NO 69], the binding result is on record as “binds”.

For the molecule DTAYKDYGWIGGG [SEQ ID NO 61], the binding result is reported as “binds”.

With TVVWHDYGWIGGG [SEQ ID NO 50], the binding result is given as “binds”.

QWVMTECGWIGGG [SEQ ID NO 52]: the binding result is “binds”.

For RISWTFLGYF [SEQ ID NO 36], the binding result is reported as “binds”.

Turning to ELRWHDYGWIGGG [SEQ ID NO 56], the binding result is recorded as “binds”.

As to EMVVTNYGWIGGG [SEQ ID NO 54], the binding result is on record as “binds”.

LVPIFYGWIDGGG [SEQ ID NO 73]: the binding result is reported as “binds”.

Regarding EWILTDYGVVGGG [SEQ ID NO 63], the binding result was “binds”.

Regarding LVVKDYGWIGGG [SEQ ID NO 47], the binding result is “binds”.

On to GWTWKDYGMIGGG [SEQ ID NO 49], for which the binding result is on record as “binds”.

For VWHYYGWLDGGG [SEQ ID NO 80], the binding result is “binds”.

Regarding WVLVDYGVIGGG [SEQ ID NO 46], the binding result is on record as “binds”.

For QTIWKDYGIIGGG [SEQ ID NO 45], the binding result is “binds”.

As to TDYGWIDYPP [SEQ ID NO 72], the binding result was “binds”.

Take SIIYYGWLDGGG [SEQ ID NO 71]: the binding result is listed as “binds”.

Turning to LVQLTDYGWIGGG [SEQ ID NO 60], the binding result was “binds”.

On to TVVWHDYGWIGGG [SEQ ID NO 59], for which the binding result is reported as “binds”.

As to TVVWHDYGWIGGG [SEQ ID NO 65], the binding result is “binds”.

Regarding ITRYTFFGFF [SEQ ID NO 39], the binding result is on record as “binds”.

In the case of SAYKCYGWIDGGG [SEQ ID NO 70], the binding result is on record as “binds”.

As to AWIVDYGWIDGGG [SEQ ID NO 76], the binding result is listed as “binds”.

With EWSHVYYGWLGGG [SEQ ID NO 42], the binding result was “binds”.

These data come from US20100136580A1 (Genentech, published 2010).
